Assay results taken from patent US20220348651A1 (Novartis, published 2022).

T1: human ENTPD2 expressed on cells (human, UniProt Q9Y5L3 1-495)
T1 construct: full-length human ENTPD2 on engineered cells; also called NIH3T3 humanENTPD2; NIH/3T3-hENTPD2
T1 sequence: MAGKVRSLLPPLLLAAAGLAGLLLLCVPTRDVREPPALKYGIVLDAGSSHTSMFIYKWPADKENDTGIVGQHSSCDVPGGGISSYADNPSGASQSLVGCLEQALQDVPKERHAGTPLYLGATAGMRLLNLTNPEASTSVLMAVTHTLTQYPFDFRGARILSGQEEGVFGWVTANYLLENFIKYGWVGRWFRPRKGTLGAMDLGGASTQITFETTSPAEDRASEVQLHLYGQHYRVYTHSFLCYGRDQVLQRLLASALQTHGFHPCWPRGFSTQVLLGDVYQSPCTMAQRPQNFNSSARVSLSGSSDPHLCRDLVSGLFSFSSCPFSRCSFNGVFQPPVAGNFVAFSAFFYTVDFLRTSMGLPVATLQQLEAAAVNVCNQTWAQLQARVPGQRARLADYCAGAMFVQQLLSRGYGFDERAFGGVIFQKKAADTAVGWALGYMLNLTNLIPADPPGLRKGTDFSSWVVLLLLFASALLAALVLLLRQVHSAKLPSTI

T2: Human ENTPD1 (NP_001767) expressed on NIH/3T3 cells (human, UniProt P49961 1-510)
T2 construct: also called NIH/3T3-ENTPD1; CD39
T2 sequence: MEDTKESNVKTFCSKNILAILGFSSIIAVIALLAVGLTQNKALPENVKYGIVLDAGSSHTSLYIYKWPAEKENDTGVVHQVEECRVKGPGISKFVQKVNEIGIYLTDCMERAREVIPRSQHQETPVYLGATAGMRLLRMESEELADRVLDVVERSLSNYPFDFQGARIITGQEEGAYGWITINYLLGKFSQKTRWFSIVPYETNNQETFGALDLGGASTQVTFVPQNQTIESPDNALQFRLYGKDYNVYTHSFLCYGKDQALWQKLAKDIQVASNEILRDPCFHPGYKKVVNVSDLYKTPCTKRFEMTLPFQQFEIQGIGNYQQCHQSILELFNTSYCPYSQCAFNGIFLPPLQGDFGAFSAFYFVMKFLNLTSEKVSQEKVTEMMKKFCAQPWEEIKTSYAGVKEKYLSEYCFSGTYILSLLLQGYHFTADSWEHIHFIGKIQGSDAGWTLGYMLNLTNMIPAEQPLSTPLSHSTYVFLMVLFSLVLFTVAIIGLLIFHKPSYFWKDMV

T3: ENTPD3 of H520 cells (UniProt O75355 1-529, limits assumed)
T3 construct: whole, on cells
T3 sequence (looked up): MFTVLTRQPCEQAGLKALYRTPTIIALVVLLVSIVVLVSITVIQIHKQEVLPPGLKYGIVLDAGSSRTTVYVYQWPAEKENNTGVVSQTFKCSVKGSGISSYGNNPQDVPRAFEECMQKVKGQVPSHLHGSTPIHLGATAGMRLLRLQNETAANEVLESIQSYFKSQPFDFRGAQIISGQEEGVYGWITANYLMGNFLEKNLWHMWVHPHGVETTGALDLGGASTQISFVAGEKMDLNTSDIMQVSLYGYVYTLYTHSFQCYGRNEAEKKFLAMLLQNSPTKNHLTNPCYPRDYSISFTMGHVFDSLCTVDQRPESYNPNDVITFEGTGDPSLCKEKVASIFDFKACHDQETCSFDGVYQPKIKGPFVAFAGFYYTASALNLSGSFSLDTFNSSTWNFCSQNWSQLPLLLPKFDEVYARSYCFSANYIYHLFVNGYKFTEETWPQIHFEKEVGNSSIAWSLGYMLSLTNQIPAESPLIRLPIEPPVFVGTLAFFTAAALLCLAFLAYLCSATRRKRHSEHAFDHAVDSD

T4: ENTPD8 of H520 cells (UniProt Q5MY95 1-495, limits assumed)
T4 construct: whole, on cells
T4 sequence (looked up): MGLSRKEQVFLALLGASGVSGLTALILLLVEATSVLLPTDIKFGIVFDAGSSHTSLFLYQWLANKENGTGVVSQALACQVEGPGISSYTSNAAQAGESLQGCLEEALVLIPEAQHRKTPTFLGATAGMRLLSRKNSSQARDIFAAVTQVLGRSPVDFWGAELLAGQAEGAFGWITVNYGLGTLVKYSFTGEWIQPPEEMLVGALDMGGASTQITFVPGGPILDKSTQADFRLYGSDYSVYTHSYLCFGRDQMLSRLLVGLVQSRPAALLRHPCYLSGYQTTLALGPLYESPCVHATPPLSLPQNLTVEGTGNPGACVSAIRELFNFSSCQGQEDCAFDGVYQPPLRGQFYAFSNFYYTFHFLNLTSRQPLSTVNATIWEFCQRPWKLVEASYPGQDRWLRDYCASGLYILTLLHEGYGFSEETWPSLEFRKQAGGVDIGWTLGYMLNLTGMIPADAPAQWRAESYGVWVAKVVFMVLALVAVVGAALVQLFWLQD

B1: ANTI-HUMAN ENTPD2 MAB9 (antibody, human IgG1, lambda, V domains shown)
VH: QVQLVQSGAEVKKPGSSVKVSCKASGGTFDSYAVSWVRQAPGQGLEWMGRIVPWLGHTQYAQKFQGRVTITADESTSTAYMELSSLRSEDTAVYYCARESPGYRYSFDVWDQGTLVTVSS
VL: SYELTQPLSVSVALGQTARITCSGDAIGEKYVYWYQQKPGQAPVLVIYDDNNRPSGIPERFSGSNSGNTATLTISRAQAGDEADYYCASYDLQQARWVFGGGTKLTVLG
notes: also called Anti-ENTPD2 mAb9
B2: ANTI-HUMAN ENTPD2 MAB8 (antibody, human IgG1, lambda, V domains shown)
VH: QVQLQQSGPGLVKPSQTLSLTCAISGDSVSSSSAAWNWIRQSPSRGLEWLGRIYYRSKWYNDYAVSVKSRITINPDTSKNQFSLQLNSVTPEDTAVYYCARGSYVTSSYEGFDYWGQGTLVTVSS
VL: SYELTQPLSVSVALGQTARITCSGDNLPEKYAYWYQQKPGQAPVLVIYDDNKRPSGIPERFSGSNSGNTATLTISRAQAGDEADYYCQSYGKWGWTWVFGGGTKLTVLG
notes: also called Anti-ENTPD2 mAb8
B3: ANTI-HUMAN ENTPD2 MAB4 (antibody, human IgG1, kappa, V domains shown)
VH: QIQLQESGPGLVKPSQTLSLTCTVSGYSITSGYYWNWIRQHPGKGLEWIGYISYDADNNYNPSLKNRVTISRDTSKNQFSLKLSSVTAADTAVYYCAGGYYRYGLGSYRGSYYYVMDYWGQGTTVTVSS
VL: ETVLTQSPATLSVSPGERATISCKASQSVDYEGHSYMNWYQQKPGQAPRLLIYAASNLESGIPARFSGSGSGTDFTLTISSVEPEDAATYYCQQSNEDPPTFGGGTKLEIKR
notes: humanized and optimized from mAb16; human IgG1, kappa; also called Anti-ENTPD2 mAb4
B4: ANTI-HUMAN ENTPD2 MAB6 (antibody, human IgG1, kappa, V domains shown)
VH: QVQLQESGPGLVKPSQTLSLTCTVSGYSITSGYYWNWIRQHPGKGLEWMGYISYDADNNYNPSLKNRITISRDTSKNQFSLKLSSVTAADTAVYYCAGGYYRYGLGSYSGSYYYVMDYWGQGTTVTVSS
VL: DTQMTQSPSSLSVSVGDRATITCKASQSVDYEGHSYMNWYQQKPGKAPKLLIYAASNLESGVPSRFSGSGSGTDFTLTISSVQPEDFATYYCQQSNEDPPTFGGGTKLEIKR
notes: humanized and optimized from mAb16; human IgG1, kappa; also called Anti-ENTPD2 mAb6
B5: ANTI-HUMAN ENTPD2 MAB5 (antibody, human IgG1, kappa, V domains shown)
VH: QIQLQESGPGLVKPSQTLSLTCTVSGYSITSGYYWNWIRQHPGKGLEWIGYISYDADNNYNPSLKNRVTISRDTSKNQFSLKLSSVTAADTAVYYCAGGYYRYGLGSYRGSYYYVMDYWGQGTTVTVSS
VL: ETVLTQSPATLSVSPGERATISCKASQSVDYDGNSYMNWYQQKPGQAPRLLIYAASNLESGIPARFSGSGSGTDFTLTISSVEPEDAATYYCQQSNEDPPTFGGGTKLEIKR
notes: humanized and optimized from mAb16; human IgG1, kappa; also called Anti-ENTPD2 mAb5
B6: ANTI-HUMAN ENTPD2 MAB2 (antibody, human IgG1, kappa)
heavy: not shown
light: EIVLTQSPATLSASPGERITLSCSASSSVSYIHWYQQKPGQAPRLLIYSTSNLASGIPARFSGSGSGTFYTLTISSVEPEDAAVYYCHQWSSYPWTFGGGTKLEIKRTVAAPSVFIFPPSDEQLKSGTASVVCLLNNFYPREAKVQWKVDNALQSGNSQESVTEQDSKDSTYSLSSTLTLSKADYEKHKVYACEVTHQGLSSPVTKSFNRGEC
notes: humanized from mAb17; human IgG1, kappa; also called Anti-ENTPD2 mAb2
B7: ANTI-HUMAN ENTPD2 MAB3 (antibody, human IgG1, kappa, V domains shown)
VH: QVQLVQSGAEVVKPGASVKISCKASGYTFTDYNMDWVKQAPGQRLEWIGDINPKYDISTYNQQFKGKATITVDTSASTAYMELSSLRSEDTAVYYCARRGFFLYYGINYYYFDVWGQGTLVTVSS
VL: EIVLTQSPATLSASPGERITLSCSASSSVSYIHWYQQKPGQAPRLLIYSTSNLASGIPARFSGSGSGTFYTLTISSVEPEDAAVYYCHQWSSYPWTFGGGTKLEIKR
notes: humanized from mAb17; human IgG1, kappa; also called Anti-ENTPD2 mAb3
B8: ANTI-HUMAN ENTPD2 MAB7 (antibody, human IgG1, kappa)
heavy: not shown
light: EIVLTQSPATLSASPGEEITLSCSASSSVSYIHWYQQKPGQAPRLLIYSTSNLASGIPARFSGSGSGTFYTLTISSVEPEDAAVYYCHQWSSYPWTFGGGTKLEIKRTVAAPSVFIFPPSDEQLKSGTASVVCLLNNFYPREAKVQWKVDNALQSGNSQESVTEQDSKDSTYSLSSTLTLSKADYEKHKVYACEVTHQGLSSPVTKSFNRGEC
notes: humanized from mAb17; human IgG1, kappa; also called Anti-ENTPD2 mAb7

What was measured:
[1] = target: T1, human ENTPD2 expressed on cells; test: flow cytometry, NIH3T3 human ENTPD2 cells
[2] = target: T5, recombinant human ENTPD2 extracellular domain (residues 29-462) with C-terminal Avi-His6 tag (human, UniProt Q9Y5L3 29-462, biotinylated on the AviTag in the epitope binning assay); test: SPR Biacore, mAb captured, ECD analyte, 25C
T5 construct: also called human ENTPD2 ECD; Human ENTPD2-Avi-His6 protein
Description: Biacore Screening: Affinity was measured by determining the kinetic rate constants using surface plasmon resonance (SPR) on a Biacore T200 or T100 with the T200 sensitivity upgrade instrument (Biacore, GE Healthcare). Antibodies were captured on CM5 sensor chips (Biacore, GE Healthcare) prepared with a mouse anti-human IgG Fc antibody (ThermoFisher catalogue #05-4200) amine coupled to the surface. […] ENTPD2 analytes were allowed to associate for 180 s and dissociate for up to 1800 s depending on the off-rate of the antibody at a flow rate of 30 μL/min. The running buffer was PBS pH 7.2 (prepared from a Corning 10X stock, cat#46-013-CM)+0.05% Tween 20. […] The raw data were analyzed using Biacore T200 Evaluation Software version 1.0 and fit to a 1:1 binding model, with all parameters set to fit globally except for RI, which was set to fit locally.

[3] = target: T2, Human ENTPD1 (NP_001767) expressed on …; test: flow cytometry, NIH/3T3-ENTPD1 cells
ENTPD3 of H520 cells = target: T3, ENTPD3 of H520 cells; test: flow cytometry, H520 cells
ENTPD8 of H520 cells = target: T4, ENTPD8 of H520 cells; test: flow cytometry, H520 cells

Binder	EC50 [1] [pM]	Kd [2] [pM]	koff [2] [s⁻¹]	kon [2] [M⁻¹ s⁻¹]	binding result [3]	binding result (ENTPD3 of H520 cells)	binding result (ENTPD8 of H520 cells)
B1	600	900	0.0003	380000	no binding (tested: 50 nM)	no binding (tested: 50 nM)	no binding (tested: 50 nM)
B2	600	3300	0.00094	290000	–	no binding (tested: 50 nM)	no binding (tested: 50 nM)
B3	900	700	0.00022	300000	no binding (tested: 50 nM)	no binding (tested: 50 nM)	no binding (tested: 50 nM)
B4	900	700	0.00026	350000	no binding (tested: 50 nM)	no binding (tested: 50 nM)	no binding (tested: 50 nM)
B5	900	600	0.00016	270000	no binding (tested: 50 nM)	no binding (tested: 50 nM)	no binding (tested: 50 nM)
B6	2100	1700	0.00018	110000	no binding (tested: 50 nM)	no binding (tested: 50 nM)	no binding (tested: 50 nM)
B7	2800	1300	0.00016	130000	no binding (tested: 50 nM)	no binding (tested: 50 nM)	no binding (tested: 50 nM)
B8	500	900	0.00019	210000	no binding (tested: 50 nM)	no binding (tested: 50 nM)	no binding (tested: 50 nM)
